Positions count from the first letter of the chain named. Names and notes keep the numbering of the source. Primed or numbered codes have the meaning given here. [ ]: non-standard residue; d: D form. The star is where a group is joined. FITC = O=C1OC2(c3ccc(O)cc3Oc3cc(O)ccc32)c2ccc(NC(=S)*)cc21; Phe(4-tBu) = CC(C)(C)c1ccc(C[C@H](N)C(=O)O)cc1; Bpa = N[C@@H](Cc1ccc(C(=O)c2ccccc2)cc1)C(=O)O; Ala(cPent) = N[C@@H](CC1CCCC1)C(=O)O; FITC′ = fluorescein isothiocyanate; hLeu = CC(C)CC[C@H](N)C(=O)O; 2Furoyl = O=C(c1ccco1)*; Cbz = O=C(OCc1ccccc1)*; Bz = O=C(c1ccccc1)*
How the values were obtained:
Settings in all cases: both partners purified
APC (303-739) [1] = molecular target: T1, APC (303-739) (UniProt P25054 303-739); assay: fluorescence polarisation; direct binding: tracer fixed at 20 nM, range of concentrations of APC (303-739), read after 1.5 h; EC50 by nonlinear regression
T1 construct: adenomatous polyposis coli (APC), residues 303-739; pET28a construct; also called APC WT; adenomatous polyposis coli; source: E. coli BL21 (DE3), purified (Ni-NTA)
T1 sequence (looked up): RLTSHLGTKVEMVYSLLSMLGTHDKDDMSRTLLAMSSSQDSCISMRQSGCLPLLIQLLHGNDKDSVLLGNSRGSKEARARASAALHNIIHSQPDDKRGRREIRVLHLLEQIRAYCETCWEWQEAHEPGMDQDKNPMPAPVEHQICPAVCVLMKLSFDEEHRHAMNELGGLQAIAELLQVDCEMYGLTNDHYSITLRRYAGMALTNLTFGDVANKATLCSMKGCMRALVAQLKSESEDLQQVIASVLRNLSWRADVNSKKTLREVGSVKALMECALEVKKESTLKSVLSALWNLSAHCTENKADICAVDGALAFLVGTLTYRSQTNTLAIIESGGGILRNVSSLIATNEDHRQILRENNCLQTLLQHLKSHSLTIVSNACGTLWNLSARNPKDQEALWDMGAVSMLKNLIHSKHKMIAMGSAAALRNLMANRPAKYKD

APC (303-739) [2] = molecular target: T1, APC (303-739); assay: fluorescence polarisation; competition with tracer 1: APC (303-739) 1.0 μM and tracer 1 20 nM (Table 2), serial dilution of peptide
APC (303-739) [3] = molecular target: T1, APC (303-739); assay: fluorescence polarisation; competition with tracer 7: 25 nM APC (303-739), serial dilution of peptide, 20 nM tracer 7; 50 mM HEPES pH 7.5, 300 mM NaCl, 1 mM EDTA, 1 mM DTT; room temperature
APC (303–739) [4] = molecular target: T2, APC (303–739) (UniProt P25054 303-739); assay: fluorescence polarisation; direct binding: tracer fixed at 20 nM, a range of concentrations of APC (303–739), read after 1.5 h; EC50 by nonlinear regression
T2 construct: adenomatous polyposis coli (APC), residues 303–739; The methods name this construct for FP and SPR; the ITC methods say only 'APC protein'; Plasmid was a gift (Dr. Geng Wu); pET28a; also called APC WT; adenomatous polyposis coli; source: E. coli BL21 (DE3), purified (Ni-NTA)
T2 sequence (looked up): T1 sequence (looked up)

APC (303-739) [5] = molecular target: T1, APC (303-739); assay: ITC; APC protein in the cell at 10-20 μM, peptide injected at 100-200 μM; 50 mM HEPES pH 7.5, 300 mM NaCl, 1 mM EDTA; 30 °C; single-site model
MAI-516 = molecular target: T3, MAI-516 (N-terminal 4-methoxy-phenyl group (R^1)); assay: ITC; MicroCal ITC200, 30 °C; 50 mM HEPES pH 7.5, 300 mM NaCl, 1 mM EDTA; APC in the cell at 10–20 μM, peptide injected at 100–200 μM; single-site model
T3 construct: peptidomimetic; the text names its residues A181, G182, E183, S184, L185 and Y186 (Asef numbering); source: synthetic peptide (Supplementary Methods)

APC (303–739) [6] = molecular target: T2, APC (303–739); assay: as above

B1: tracer 9 (peptide)
peptide: Cbz-AGESLYENELK(FITC′)-NH2
notes: source: synthetic peptide (general procedure B; FITC-labeled tracer peptides obtained from Changzhou Kanglong Biotech)
Which EC50 (APC (303-739) [1]) does the source give for B1 here?
The EC50 was 47 nM.

{2‑chloropyrimidine‑4‑carbonyl}-AGESLYE-NH2 [MAI-459] was tested. Which IC50 (APC (303-739) [2]) did it give?
Its IC50 is 600 ± 120 nM.

What about the IC50 (APC (303-739) [3]) of the same binder?
Its IC50 is 840 ± 30 nM.

{2‑(methylthio)pyrimidine‑4‑carbonyl}-AGESLYE-NH2 [MAI-456] was tested. Which IC50 (APC (303-739) [2]) did it give?
The IC50 was 570 ± 120 nM.

What about the IC50 (APC (303-739) [3]) of the same binder?
The IC50 was 990 ± 60 nM.

B2: tracer 11 (peptide)
peptide: Cbz-AGESLYEGGGGGGGK(FITC′)-NH2
notes: as for B1
With B2 as the binder, how does the EC50 (APC (303-739) [1]) read?
The EC50 was 53 nM.

B3: tracer 2 (Ac–GGAGEALAINELISDGK[FITC]–NH2) (peptide)
peptide: Ac-GGAGEALAINELISDGK(FITC′)-NH2
notes: designed from tracer 1 (Asef stretch) by changing residues of the hot spot GGEQLAI; source: synthetic peptide, bought: Changzhou Kanglong Biotech Ltd
How did the EC50 (APC (303–739) [4]) turn out when B3 was run?
Its EC50 is 180 nM.

B4: MAI-457 (peptide)
chain: Bz-AGESLY[Bpa]-NH2
SMILES: CC(C)C[C@H](NC(=O)[C@H](CO)NC(=O)[C@H](CCC(=O)O)NC(=O)CNC(=O)[C@H](C)NC(=O)c1ccccc1)C(=O)N[C@@H](Cc1ccc(O)cc1)C(=O)N[C@@H](Cc1ccc(C(=O)c2ccccc2)cc1)C(N)=O
Which results are given for B4?
IC50 (APC (303-739) [2]): 590 ± 200 nM; IC50 (APC (303-739) [3]): 92 ± 3 nM

B5: tracer 3 (Ac–GGAGESLYENELISDGK[FITC]–NH2) (peptide)
peptide: Ac-GGAGESLYENELISDGK(FITC′)-NH2
notes: as for B3
B5 was tested. Which EC50 (APC (303–739) [4]) did it give?
The EC50 was 68 nM.

B6: tracer 4 (Ac–YGAGESLYENELISDGK[FITC]–NH2) (peptide)
peptide: Ac-YGAGESLYENELISDGK(FITC′)-NH2
notes: tracer 3 with its first residue replaced; source: synthetic peptide, bought: Changzhou Kanglong Biotech Ltd
B6 was tested. Which EC50 (APC (303–739) [4]) did it give?
Its EC50 is 48 nM.

B7: tracer 5 (Ac–EGAGESLYENELISDGK[FITC]–NH2) (peptide)
peptide: Ac-EGAGESLYENELISDGK(FITC′)-NH2
notes: as for B6
How did the EC50 (APC (303–739) [4]) turn out when B7 was run?
The EC50 was 46 nM.

For Bz-AGESLY[dE]-NH2 [MAI-465], which IC50 (APC (303-739) [2]) is on record?
Its IC50 is 750 ± 150 nM.

What about the IC50 (APC (303-739) [3]) of the same binder?
The IC50 was 1000 ± 30 nM.

B8: tracer 6 (Z–AGESLYENELISDGK[FITC]–NH2) (peptide)
peptide: Cbz-AGESLYENELISDGK(FITC′)-NH2
notes: tracer 3 with its first two residues GG replaced by a benzyloxycarbonyl (Z) group; source: synthetic peptide, bought: Changzhou Kanglong Biotech Ltd
How did the EC50 (APC (303–739) [4]) turn out when B8 was run?
Its EC50 is 40 nM.

B9: tracer 7 (peptide)
peptide: Cbz-AGESLYEK(FITC)-NH2
notes: designed from the Asef hot spot 181-187; the systematic name on D1:p12 gives (R) at the lysine carbon; source: synthetic peptide (general procedure B; FITC-labeled tracer peptides obtained from Changzhou Kanglong Biotech)
B9 was tested. Which “stoichiometry N” value (APC (303-739) [5]) did it give?
Its value is 1.6.

B10: tracer 12 (peptide)
peptide: Cbz-AGESLYEGGGGGK(FITC′)-NH2
notes: as for B1
How did the EC50 (APC (303-739) [1]) turn out when B10 was run?
The EC50 was 51 nM.

B11: tracer 10 (peptide)
peptide: Cbz-AGESLYENK(FITC′)-NH2
notes: as for B1
How did the EC50 (APC (303-739) [1]) turn out when B11 was run?
Its EC50 is 52 nM.

B12: tracer 14 (peptide)
peptide: Cbz-AGESLYEGK(FITC′)-NH2
notes: as for B1
With B12 as the binder, how does the EC50 (APC (303-739) [1]) read?
The EC50 was 50 nM.

B13: tracer 8 (peptide)
peptide: Cbz-AGESLYENELISK(FITC′)-NH2
notes: as for B1
B13 was tested. Which EC50 (APC (303-739) [1]) did it give?
Its EC50 is 41 nM.

Which results are given for {furan‑2‑carbonyl}-AGESLY[Bpa]-NH2 [MAI-454]?
IC50 (APC (303-739) [2]): 480 ± 150 nM; IC50 (APC (303-739) [3]): 280 ± 10 nM

B14: MAI-461 (peptide)
chain: Bz-AGES[Ala(cPent)]YE-NH2
SMILES: C[C@H](NC(=O)c1ccccc1)C(=O)NCC(=O)N[C@@H](CCC(=O)O)C(=O)N[C@@H](CO)C(=O)N[C@@H](CC1CCCC1)C(=O)N[C@@H](Cc1ccc(O)cc1)C(=O)N[C@@H](CCC(=O)O)C(N)=O
With B14 as the binder, how does the IC50 (APC (303-739) [2]) read?
The IC50 was 630 ± 200 nM.

What about the IC50 (APC (303-739) [3]) of the same binder?
Its IC50 is 80 ± 3 nM.

B15: MAI-466 (peptide)
chain: 2Furoyl-AGESLY[Phe(4-tBu)]-NH2
SMILES: CC(C)C[C@H](NC(=O)[C@H](CO)NC(=O)[C@H](CCC(=O)O)NC(=O)CNC(=O)[C@H](C)NC(=O)c1ccco1)C(=O)N[C@@H](Cc1ccc(O)cc1)C(=O)N[C@@H](Cc1ccc(C(C)(C)C)cc1)C(N)=O
How did the IC50 (APC (303-739) [2]) turn out when B15 was run?
The IC50 was 810 ± 200 nM.

And the IC50 (APC (303-739) [3])?
The IC50 was 940 ± 30 nM.

With Bz-AGESLYE-NH2 [MAI-467] as the binder, how does the IC50 (APC (303-739) [2]) read?
The IC50 was 820 ± 300 nM.

What about the IC50 (APC (303-739) [3]) of the same binder?
Its IC50 is 320 ± 7 nM.

B16: APC W593A, N641A (domain or fragment)
chain: T1 sequence (looked up) with W291A, N339A
Which Kd (MAI-516) does the source give for B16 here?
The Kd was 860 nM.

With {pyrimidine‑4‑carbonyl}-AGESLYE-NH2 [MAI-464] as the binder, how does the IC50 (APC (303-739) [2]) read?
Its IC50 is 740 ± 160 nM.

What about the IC50 (APC (303-739) [3]) of the same binder?
The IC50 was 220 ± 10 nM.

B17: tracer 1 (Ac–GGGGEQLAINELISDGK[FITC]–NH2) (peptide)
peptide: Ac-GGGGEQLAINELISDGK(FITC)-NH2
notes: stretch of Asef (Rho guanine nucleotide exchange factor 4); lysine that carries FITC; source: synthetic peptide, bought: Changzhou Kanglong Biotech Ltd
How did the EC50 (APC (303–739) [4]) turn out when B17 was run?
The EC50 was 540 nM.

And the Kd (APC (303–739) [6])?
The Kd was 580 nM.

What does the source list for {oxazole‑5‑carbonyl}-AGESLYE-NH2 [MAI-460]?
IC50 (APC (303-739) [2]): 620 ± 190 nM; IC50 (APC (303-739) [3]): 550 ± 9 nM

B18: tracer 13 (peptide)
peptide: Cbz-AGESLYEGGGK(FITC′)-NH2
notes: as for B1
Which EC50 (APC (303-739) [1]) does the source give for B18 here?
The EC50 was 48 nM.

B19: tracer 7 (Z–AGESLYEK[FITC]–NH2) (peptide)
peptide: Cbz-AGESLYEK(FITC)-NH2
notes: tracer 6 with a shortened linker; source: synthetic peptide, bought: Changzhou Kanglong Biotech Ltd
Which EC50 (APC (303–739) [4]) does the source give for B19 here?
Its EC50 is 16 nM.

And the Kd (APC (303–739) [6])?
Its Kd is 78 nM.

{oxazole‑2‑carbonyl}-AGESLYE-NH2 [MAI-455] was tested. Which IC50 (APC (303-739) [2]) did it give?
The IC50 was 530 ± 120 nM.

What about the IC50 (APC (303-739) [3]) of the same binder?
The IC50 was 860 ± 30 nM.

Which IC50 (APC (303-739) [2]) does the source give for {morpholine‑4‑carbonyl}-AGESLYE-NH2 [MAI-451] here?
Its IC50 is 390 ± 120 nM.

What about the IC50 (APC (303-739) [3]) of the same binder?
The IC50 was 270 ± 5 nM.

What does the source list for Cbz-AGES[hLeu]YE-NH2 [MAI-426]?
IC50 (APC (303-739) [2]): 840 ± 190 nM; IC50 (APC (303-739) [3]): 1200 ± 60 nM

What does the source list for {benzofuran‑2‑carbonyl}-AGESLYE-NH2 [MAI-453]?
IC50 (APC (303-739) [2]): 460 ± 140 nM; IC50 (APC (303-739) [3]): 260 ± 10 nM
